Laboratory results reported in patent publication US20230151111A1 (AKESO BIOPHARMA, published 2023).
Values belong to the binder of their own block, whether it stands above or below them.

Assays:
[1] = biological target: T1, CD73 on cell membrane surface (MDA-MB-231, U87-MG) (human, UniProt P21589 27-549); assay: flow cytometry, MDA-MB-231 cells; antibody 0.41 nM
T1 construct: whole, on cells; also called NT5E
T1 sequence (looked up): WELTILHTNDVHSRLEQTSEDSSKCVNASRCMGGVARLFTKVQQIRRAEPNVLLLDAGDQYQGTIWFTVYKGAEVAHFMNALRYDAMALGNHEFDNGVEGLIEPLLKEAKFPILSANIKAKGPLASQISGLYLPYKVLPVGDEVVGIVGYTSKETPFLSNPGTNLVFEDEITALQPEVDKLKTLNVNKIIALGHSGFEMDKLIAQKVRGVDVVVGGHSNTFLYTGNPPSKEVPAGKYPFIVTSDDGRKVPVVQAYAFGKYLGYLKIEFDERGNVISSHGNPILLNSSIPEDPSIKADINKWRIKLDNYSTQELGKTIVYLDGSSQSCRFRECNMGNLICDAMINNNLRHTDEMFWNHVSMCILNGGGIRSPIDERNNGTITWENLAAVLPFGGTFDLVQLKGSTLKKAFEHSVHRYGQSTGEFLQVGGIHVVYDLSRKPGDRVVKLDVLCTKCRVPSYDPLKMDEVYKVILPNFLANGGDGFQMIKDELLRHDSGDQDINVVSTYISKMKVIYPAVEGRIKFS
Procedure: (§1) MDA-MB-231 cells in logarithmic phase were digested with conventional trypsin and transferred to a 1.5 mL centrifuge tube at 3×10⁵ cells/tube. 500 μL of PBSA was added, and the mixture was centrifuged at 5600 rpm for 5 min to remove the supernatant. […] The system was mixed gently and uniformly, and then was incubated on ice for 1 h. Then 500 μL of PBSA was added, and the mixture was centrifuged at 5600 rpm for 5 min to remove the supernatant. […] 500 μL of PBSA was added, and the mixture was centrifuged at 5600 rpm for 5 min to remove the supernatant. At last, 200 μL of PBSA was added to resuspend cell precipitates, and the mixture was transferred to a flow tube for FACSCalibur detection.

[2] = biological target: T1, CD73 on cell membrane surface …; assay: flow cytometry, MDA-MB-231 cells; antibody 3.70 nM
Procedure: as §1

[3] = biological target: T1, CD73 on cell membrane surface …; assay: flow cytometry, MDA-MB-231 cells; antibody 11.11 nM
Procedure: as §1

[4] = biological target: T1, CD73 on cell membrane surface …; assay: flow cytometry, MDA-MB-231 cells; antibody 33.33 nM
Procedure: as §1

[5] = biological target: T1, CD73 on cell membrane surface …; assay: flow cytometry, MDA-MB-231 cells; antibody 0.05 nM
Procedure: as §1

[6] = biological target: T1, CD73 on cell membrane surface …; assay: flow cytometry, MDA-MB-231 cells
Procedure: as §1

[7] = biological target: T1, CD73 on cell membrane surface …; assay: cell-based or functional assay
[8] = biological target: T1, CD73 on cell membrane surface …; assay: flow cytometry, MDA-MB-231 cells; antibody 1.23 nM
Procedure: as §1

[9] = biological target: T1, CD73 on cell membrane surface …; assay: flow cytometry, MDA-MB-231 cells; antibody 100.00 nM
Procedure: as §1

[10] = biological target: T1, CD73 on cell membrane surface …; assay: flow cytometry, MDA-MB-231 cells; antibody 0.14 nM
Procedure: as §1

PD-1-mFc [11] = biological target: T2, PD-1-mFc (human, UniProt Q15116 25-170, limits assumed); assay: BLI (Fortebio), antibody on AHC sensor, PD-1-mFc 0.6-50 nM, 37 C
T2 construct: also called human PD-1-mFc
T2 sequence (Q15116 other isoform, or with tags, fused parts or gaps limits assumed): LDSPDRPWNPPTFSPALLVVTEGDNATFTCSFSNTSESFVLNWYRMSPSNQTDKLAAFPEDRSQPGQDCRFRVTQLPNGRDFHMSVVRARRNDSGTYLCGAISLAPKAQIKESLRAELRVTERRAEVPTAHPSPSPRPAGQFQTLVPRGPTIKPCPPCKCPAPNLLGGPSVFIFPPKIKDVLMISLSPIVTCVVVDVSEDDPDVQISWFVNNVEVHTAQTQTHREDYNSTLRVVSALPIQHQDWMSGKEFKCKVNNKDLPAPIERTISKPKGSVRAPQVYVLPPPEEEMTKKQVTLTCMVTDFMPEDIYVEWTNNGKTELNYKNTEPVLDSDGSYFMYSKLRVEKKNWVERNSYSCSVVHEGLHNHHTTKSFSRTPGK
Procedure: The sample dilution buffer was PBST, 0.1% BSA, pH 7.4. The antibody was immobilized on an AHC sensor at a concentration of 5 μg/mL with an immobilization height of about 0.4 nm. The sensor was equilibrated in a buffer for 60 s, and the binding of the immobilized antibody on the sensor to the antigen PD-1-mFc at concentrations of 0.6-50 nM (three-fold dilution) was determined in 120 s. The protein was dissociated in the buffer for 180 s. The detection temperature was 37° C., the detection frequency was 0.3 Hz, and the sample plate shaking rate was 1000 rpm. The data were analyzed by 1:1 model fitting to obtain affinity constants.

[12] = biological target: T3, PD-1 on 293T-PD1 cell surface (human, UniProt Q15116 25-288); assay: flow cytometry, 293T-PD1 cells; antibody 0.14 nM
T3 construct: whole, on cells
T3 sequence (Q15116 25-288): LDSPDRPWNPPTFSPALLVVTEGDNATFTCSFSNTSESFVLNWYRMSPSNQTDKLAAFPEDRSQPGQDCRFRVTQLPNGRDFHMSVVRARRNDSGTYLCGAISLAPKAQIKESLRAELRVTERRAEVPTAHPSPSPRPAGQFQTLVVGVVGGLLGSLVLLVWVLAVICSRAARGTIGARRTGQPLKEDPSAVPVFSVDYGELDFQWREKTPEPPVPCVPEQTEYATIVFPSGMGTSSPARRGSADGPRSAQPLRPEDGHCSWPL
Procedure: as §1, with “500” for “MDA-MB-231 cells in logarithmic phase were digested with conventional trypsin and transferred to a 1.5 mL centrifuge tube at 3×10⁵ cells/tube. 500”

[13] = biological target: T3, PD-1 on 293T-PD1 cell surface; assay: flow cytometry, 293T-PD1 cells; antibody 33.33 nM
Procedure: as §1, with “500” for “MDA-MB-231 cells in logarithmic phase were digested with conventional trypsin and transferred to a 1.5 mL centrifuge tube at 3×10⁵ cells/tube. 500”

[14] = biological target: T3, PD-1 on 293T-PD1 cell surface; assay: flow cytometry, 293T-PD1 cells; antibody 0.41 nM
Procedure: as §1, with “500” for “MDA-MB-231 cells in logarithmic phase were digested with conventional trypsin and transferred to a 1.5 mL centrifuge tube at 3×10⁵ cells/tube. 500”

[15] = biological target: T3, PD-1 on 293T-PD1 cell surface; assay: flow cytometry, 293T-PD1 cells; antibody 1.23 nM
Procedure: as §1, with “500” for “MDA-MB-231 cells in logarithmic phase were digested with conventional trypsin and transferred to a 1.5 mL centrifuge tube at 3×10⁵ cells/tube. 500”

[16] = biological target: T3, PD-1 on 293T-PD1 cell surface; assay: flow cytometry, 293T-PD1 cells; antibody 100.00 nM
Procedure: as §1, with “500” for “MDA-MB-231 cells in logarithmic phase were digested with conventional trypsin and transferred to a 1.5 mL centrifuge tube at 3×10⁵ cells/tube. 500”

PD-1-mFc [17] = biological target: T2, PD-1-mFc; assay: ELISA, PD-1-mFc coated
Procedure: A microplate was coated with PD-1-mFc at 0.5 μg/mL and incubated at 4° C. overnight. Then the microplate coated with antigens was washed once with PBST, and then blocked with a PBS solution containing 1% BSA as blocking solution at 37° C. for 2 h. After blocking, the microplate was washed 3 times with PBST. The microplate containing the test antibodies was incubated at 37° C. for 30 min, and then washed 3 times with PBST. […] After incubation, the plate was washed 4 times with PBST, TMB (Neogen, 308177) was added in the dark for chromogenesis for 5 min, and then a stop solution was added to terminate chromogenic reaction. The microplate was put into a microplate reader immediately, and the OD value of each well in the microplate was read at 450 nm. The data were analyzed and processed by SoftMax Pro 6.2.1,

[18] = biological target: T3, PD-1 on 293T-PD1 cell surface; assay: flow cytometry, 293T-PD1 cells; antibody 0.05 nM
Procedure: as §1, with “500” for “MDA-MB-231 cells in logarithmic phase were digested with conventional trypsin and transferred to a 1.5 mL centrifuge tube at 3×10⁵ cells/tube. 500”

[19] = biological target: T3, PD-1 on 293T-PD1 cell surface; assay: flow cytometry, 293T-PD1 cells; antibody 3.70 nM
Procedure: as §1, with “500” for “MDA-MB-231 cells in logarithmic phase were digested with conventional trypsin and transferred to a 1.5 mL centrifuge tube at 3×10⁵ cells/tube. 500”

[20] = biological target: T3, PD-1 on 293T-PD1 cell surface; assay: flow cytometry, 293T-PD1 cells
Procedure: as §1, with “500” for “MDA-MB-231 cells in logarithmic phase were digested with conventional trypsin and transferred to a 1.5 mL centrifuge tube at 3×10⁵ cells/tube. 500”

human PD-1-mFc-biotin [21] = biological target: T4, human PD-1-mFc-biotin (human, UniProt Q15116 25-170, limits assumed, biotin label, site not stated); assay: competitive ELISA, competitor coated PD-L1-mFc; antibody 5 ug/mL diluted 1:3
T4 sequence (Q15116 other isoform, or with tags, fused parts or gaps limits assumed): as the sequence (Q15116 other isoform, or with tags, fused parts or gaps limits assumed) above
Procedure: (§2) After incubation, the microplate was blocked with a PBS solution containing 1% BSA at 37° C. for 2 h. After blocking, the plate was washed three times and dried. The antibody was serially diluted to 7 concentrations in a gradient ratio of 1:3 on a dilution plate with 10 μg/mL as the starting concentration, and a blank control was set. […] Then the mixture after reaction was added to the coated microplate, and the microplate was incubated for at 37° C. for 30 min. After incubation, the plate was washed three times with PBST and dried. SA-HRP (KPL, 14-30-00) working solution was added, and the plate was incubated at 37° C. for 30 min. After incubation, the plate was washed four times and patted dry. Then TMB (Neogen, 308177) was added in the dark for chromogenesis for 5 min, and a stop solution was added to terminate chromogenic reaction. Then the microplate was put into a microplate reader immediately, and the OD value of each well in the microplate was read at 450 nm. The data were analyzed and processed by SoftMax Pro 6.2.1.

[22] = biological target: T3, PD-1 on 293T-PD1 cell surface; assay: flow cytometry, 293T-PD1 cells; antibody 11.11 nM
Procedure: as §1, with “500” for “MDA-MB-231 cells in logarithmic phase were digested with conventional trypsin and transferred to a 1.5 mL centrifuge tube at 3×10⁵ cells/tube. 500”

human NT5E-Biotin = biological target: T5, human NT5E-Biotin (human, UniProt P21589 27-552, limits assumed, biotin label, site not stated); assay: ELISA, NT5E-biotin on streptavidin
T5 construct: Captured on streptavidin-coated plates; also called human NTSE-Biotin
T5 sequence (looked up): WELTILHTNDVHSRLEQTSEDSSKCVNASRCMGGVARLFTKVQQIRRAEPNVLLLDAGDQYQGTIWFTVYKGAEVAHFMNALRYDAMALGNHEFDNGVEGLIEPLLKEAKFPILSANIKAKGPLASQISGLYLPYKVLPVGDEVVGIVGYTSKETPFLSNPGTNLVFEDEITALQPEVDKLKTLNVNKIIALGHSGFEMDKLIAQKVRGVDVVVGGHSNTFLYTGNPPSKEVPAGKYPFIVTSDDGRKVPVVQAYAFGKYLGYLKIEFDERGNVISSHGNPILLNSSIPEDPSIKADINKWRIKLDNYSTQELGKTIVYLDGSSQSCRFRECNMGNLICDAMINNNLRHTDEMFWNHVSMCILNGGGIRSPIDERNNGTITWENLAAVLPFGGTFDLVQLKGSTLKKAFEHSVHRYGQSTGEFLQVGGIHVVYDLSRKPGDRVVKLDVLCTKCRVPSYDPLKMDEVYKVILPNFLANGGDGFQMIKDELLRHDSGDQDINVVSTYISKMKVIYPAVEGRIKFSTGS
Procedure: A microplate was coated with streptavidin at 2 μg/mL and then incubated at 4° C. overnight. After incubation, the microplate coated with streptavidin was washed once with PBST, and blocked with a PBS solution containing 1% BSA as a microplate blocking solution at 37° C. for 2 h. After blocking, the microplate was washed 3 times with PBST. Then, 0.5 μg/mL antigen human NTSE-Biotin was added and incubated at 37° C. for 30 min. Then, the plate was washed 3 times with PBST. The antibodies serially diluted with PBST solution (the dilution gradients for the antibody are shown in Table 3) were added to wells of the microplate. The microplate containing the test antibodies was incubated at 37° C. for 30 min, and then washed 3 times with PBST. […] After incubation, the plate was washed 4 times with PBST, TMB (Neogen, 308177) was added in the dark for chromogenesis for 5 min, and then a stop solution was added to terminate chromogenic reaction. The microplate was put into a microplate reader immediately, and the OD value of each well in the microplate was read at 450 nm. The data were analyzed and processed by SoftMax Pro 6.2.1.

human PD-1-mFc-biotin [23] = biological target: T4, human PD-1-mFc-biotin; assay: competitive ELISA, blocking of PD-1-mFc-biotin binding to coated PD-L1-mFc
Procedure: as §2

FACS signal [1]: 158
FACS signal [2]: 698
FACS signal [3]: 829
FACS signal [4]: 930
FACS signal [5]: 32.6
EC50 [6]: 1.59 nM
IC50 (nM), inhibition of enzyme activity of CD73 on U87-MG cell membrane surface [7]: 0.119 nM
FACS signal [8]: 389
FACS signal [9]: 878
FACS signal [10]: 64.4
B1: MEDI9447 (antibody, V domains shown)
VH: EVQLLESGGGLVQPGGSLRLSCAASGFTFSSYAYSWVRQAPGKGLEWVSAISGSGGRTYYADSVKGRFTISRDNSKNTLYLQMNSLRAEDTAVYYCARLGYGRVDEWGRGTLVTVSS
VL: QSVLTQPPSASGTPGQRVTISCSGSLSNIGRNPVNWYQQLPGTAPKLLIYLDNLRLSGVPDRFSGSKSGTSASLAISGLQSEDEADYYCATWDDSHPGWTFGGGTKLTVLG

Kd (PD-1-mFc [11]): 0.164 nM
FACS signal [12]: 57.7
FACS signal [13]: 1170
FACS signal [14]: 129
FACS signal [15]: 438
FACS signal [16]: 1500
EC50 (PD-1-mFc [17]): 0.033 nM
FACS signal [18]: 35.7
FACS signal [19]: 975
EC50 [20]: 2.11 nM
B2: 14C12H1L1 (antibody, human IgG1, kappa)
heavy: not shown
light: DIQMTQSPSSMSASVGDRVTFTCRASQDINTYLSWFQQKPGKSPKTLIYRANRLVSGVPSRFSGSGSGQDYTLTISSLQPEDMATYYCLQYDEFPLTFGAGTKLELKRTVAAPSVFIFPPSDEQLKSGTASVVCLLNNFYPREAKVQWKVDNALQSGNSQESVTEQDSKDSTYSLSSTLTLSKADYEKHKVYACEVTHQGLSSPVTKSFNRGEC
notes: Humanized anti-PD-1 IgG1/kappa

OD450 (human PD-1-mFc-biotin [21]): 0.051 OD
FACS signal [12]: 43
FACS signal [13]: 405
FACS signal [14]: 108
FACS signal [15]: 218
FACS signal [22]: 426
FACS signal [16]: 301
EC50 (human NT5E-Biotin): 0.23 nM
EC50 (PD-1-mFc [17]): 0.078 nM
FACS signal [18]: 23.4
FACS signal [19]: 404
EC50 [20]: 1.07 nM
EC50 (human PD-1-mFc-biotin [23]): 1.33 nM
B3: P1D7V02R (bispecific antibody, human IgG1, kappa)
heavy: not shown
light: B2 light
notes: Morrison form IgG-scFv
